Reference: patent publication US20150344570A1 (published 2015)

target: FcγRIIIa extracellular domain with C-terminal His tag (human, UniProt P08637 17-208); assay: SPR (Biacore), one H chain altered; HeCon Ab GpH7-A5/GpH7-B3/GpL16-k0 = 100
Sequence (P08637 17-208): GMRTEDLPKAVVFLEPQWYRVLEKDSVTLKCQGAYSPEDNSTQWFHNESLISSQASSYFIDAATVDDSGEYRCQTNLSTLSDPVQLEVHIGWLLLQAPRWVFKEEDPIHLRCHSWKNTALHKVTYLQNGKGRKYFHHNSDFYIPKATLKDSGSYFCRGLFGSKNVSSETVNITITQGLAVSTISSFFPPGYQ

Row | He/Con_3a [%] | Binder
1 | 105 | GpH7-A5/GpH7-B3 variant P238_10E/GpL16-k0 (antibody, human IgG1, kappa, one H chain altered; also called He Ab P238_10E) heavy 1: not shown heavy 2: not shown light: DIVMTQSPLSLPVTPGEPASISCQASESLVHSNRNTYLHWYLQKPGQSPQLLIYKVSNRFSGVPDRFSGSGSGTDFTLKISRVEAEDVGVYYCSQNTHVPPTFGQGTKVEIERTVAAPSVFIFPPSDEQLKSGTASVVCLLNNFYPREAKVQWKVDNALQSGNSQESVTEQDSKDSTYSLSSTLTLSKADYEKHKVYACEVTHQGLSSPVTKSFNRGEC
2 | 113 | GpH7-A5/GpH7-B3 variant P271_01G/GpL16-k0 (antibody, human IgG1, kappa, one H chain altered; also called He Ab P271_01G) heavy 1: not shown heavy 2: not shown light: DIVMTQSPLSLPVTPGEPASISCQASESLVHSNRNTYLHWYLQKPGQSPQLLIYKVSNRFSGVPDRFSGSGSGTDFTLKISRVEAEDVGVYYCSQNTHVPPTFGQGTKVEIERTVAAPSVFIFPPSDEQLKSGTASVVCLLNNFYPREAKVQWKVDNALQSGNSQESVTEQDSKDSTYSLSSTLTLSKADYEKHKVYACEVTHQGLSSPVTKSFNRGEC
3 | 104 | GpH7-A5/GpH7-B3 variant S324_02A/GpL16-k0 (antibody, human IgG1, kappa, one H chain altered; also called He Ab S324_02A) heavy 1: not shown heavy 2: not shown light: DIVMTQSPLSLPVTPGEPASISCQASESLVHSNRNTYLHWYLQKPGQSPQLLIYKVSNRFSGVPDRFSGSGSGTDFTLKISRVEAEDVGVYYCSQNTHVPPTFGQGTKVEIERTVAAPSVFIFPPSDEQLKSGTASVVCLLNNFYPREAKVQWKVDNALQSGNSQESVTEQDSKDSTYSLSSTLTLSKADYEKHKVYACEVTHQGLSSPVTKSFNRGEC
4 | 101 | GpH7-A5/GpH7-B3 variant S337_04F/GpL16-k0 (antibody, human IgG1, kappa, one H chain altered; also called He Ab S337_04F) heavy 1: not shown heavy 2: not shown light: DIVMTQSPLSLPVTPGEPASISCQASESLVHSNRNTYLHWYLQKPGQSPQLLIYKVSNRFSGVPDRFSGSGSGTDFTLKISRVEAEDVGVYYCSQNTHVPPTFGQGTKVEIERTVAAPSVFIFPPSDEQLKSGTASVVCLLNNFYPREAKVQWKVDNALQSGNSQESVTEQDSKDSTYSLSSTLTLSKADYEKHKVYACEVTHQGLSSPVTKSFNRGEC
5 | 101 | GpH7-A5/GpH7-B3 variant S337_14T/GpL16-k0 (antibody, human IgG1, kappa, one H chain altered; also called He Ab S337_14T) heavy 1: not shown heavy 2: not shown light: DIVMTQSPLSLPVTPGEPASISCQASESLVHSNRNTYLHWYLQKPGQSPQLLIYKVSNRFSGVPDRFSGSGSGTDFTLKISRVEAEDVGVYYCSQNTHVPPTFGQGTKVEIERTVAAPSVFIFPPSDEQLKSGTASVVCLLNNFYPREAKVQWKVDNALQSGNSQESVTEQDSKDSTYSLSSTLTLSKADYEKHKVYACEVTHQGLSSPVTKSFNRGEC
6 | 102 | GpH7-A5/GpH7-B3 variant S337_15Y/GpL16-k0 (antibody, human IgG1, kappa, one H chain altered; also called He Ab S337_15Y) heavy 1: not shown heavy 2: not shown light: DIVMTQSPLSLPVTPGEPASISCQASESLVHSNRNTYLHWYLQKPGQSPQLLIYKVSNRFSGVPDRFSGSGSGTDFTLKISRVEAEDVGVYYCSQNTHVPPTFGQGTKVEIERTVAAPSVFIFPPSDEQLKSGTASVVCLLNNFYPREAKVQWKVDNALQSGNSQESVTEQDSKDSTYSLSSTLTLSKADYEKHKVYACEVTHQGLSSPVTKSFNRGEC
7 | 101 | GpH7-A5/GpH7-B3 variant S337_20W/GpL16-k0 (antibody, human IgG1, kappa, one H chain altered; also called He Ab S337_20W) heavy 1: not shown heavy 2: not shown light: DIVMTQSPLSLPVTPGEPASISCQASESLVHSNRNTYLHWYLQKPGQSPQLLIYKVSNRFSGVPDRFSGSGSGTDFTLKISRVEAEDVGVYYCSQNTHVPPTFGQGTKVEIERTVAAPSVFIFPPSDEQLKSGTASVVCLLNNFYPREAKVQWKVDNALQSGNSQESVTEQDSKDSTYSLSSTLTLSKADYEKHKVYACEVTHQGLSSPVTKSFNRGEC
8 | 105 | GpH7-A5/GpH7-B3 variant T335_13S/GpL16-k0 (antibody, human IgG1, kappa, one H chain altered; also called He Ab T335_13S) heavy 1: not shown heavy 2: not shown light: DIVMTQSPLSLPVTPGEPASISCQASESLVHSNRNTYLHWYLQKPGQSPQLLIYKVSNRFSGVPDRFSGSGSGTDFTLKISRVEAEDVGVYYCSQNTHVPPTFGQGTKVEIERTVAAPSVFIFPPSDEQLKSGTASVVCLLNNFYPREAKVQWKVDNALQSGNSQESVTEQDSKDSTYSLSSTLTLSKADYEKHKVYACEVTHQGLSSPVTKSFNRGEC
9 | 104 | GpH7-A5/GpH7-B3 variant T335_15Y/GpL16-k0 (antibody, human IgG1, kappa, one H chain altered; also called He Ab T335_15Y) heavy 1: not shown heavy 2: not shown light: DIVMTQSPLSLPVTPGEPASISCQASESLVHSNRNTYLHWYLQKPGQSPQLLIYKVSNRFSGVPDRFSGSGSGTDFTLKISRVEAEDVGVYYCSQNTHVPPTFGQGTKVEIERTVAAPSVFIFPPSDEQLKSGTASVVCLLNNFYPREAKVQWKVDNALQSGNSQESVTEQDSKDSTYSLSSTLTLSKADYEKHKVYACEVTHQGLSSPVTKSFNRGEC
10 | 104 | GpH7-A5/GpH7-B3 variant T335_16H/GpL16-k0 (antibody, human IgG1, kappa, one H chain altered; also called He Ab T335_16H) heavy 1: not shown heavy 2: not shown light: DIVMTQSPLSLPVTPGEPASISCQASESLVHSNRNTYLHWYLQKPGQSPQLLIYKVSNRFSGVPDRFSGSGSGTDFTLKISRVEAEDVGVYYCSQNTHVPPTFGQGTKVEIERTVAAPSVFIFPPSDEQLKSGTASVVCLLNNFYPREAKVQWKVDNALQSGNSQESVTEQDSKDSTYSLSSTLTLSKADYEKHKVYACEVTHQGLSSPVTKSFNRGEC
11 | 102 | GpH7-A5/GpH7-B3 variant T335_19Q/GpL16-k0 (antibody, human IgG1, kappa, one H chain altered; also called He Ab T335_19Q) heavy 1: not shown heavy 2: not shown light: DIVMTQSPLSLPVTPGEPASISCQASESLVHSNRNTYLHWYLQKPGQSPQLLIYKVSNRFSGVPDRFSGSGSGTDFTLKISRVEAEDVGVYYCSQNTHVPPTFGQGTKVEIERTVAAPSVFIFPPSDEQLKSGTASVVCLLNNFYPREAKVQWKVDNALQSGNSQESVTEQDSKDSTYSLSSTLTLSKADYEKHKVYACEVTHQGLSSPVTKSFNRGEC
12 | 102 | GpH7-A5/GpH7-B3 variant T335_20W/GpL16-k0 (antibody, human IgG1, kappa, one H chain altered; also called He Ab T335_20W) heavy 1: not shown heavy 2: not shown light: DIVMTQSPLSLPVTPGEPASISCQASESLVHSNRNTYLHWYLQKPGQSPQLLIYKVSNRFSGVPDRFSGSGSGTDFTLKISRVEAEDVGVYYCSQNTHVPPTFGQGTKVEIERTVAAPSVFIFPPSDEQLKSGTASVVCLLNNFYPREAKVQWKVDNALQSGNSQESVTEQDSKDSTYSLSSTLTLSKADYEKHKVYACEVTHQGLSSPVTKSFNRGEC
13 | 118 | GpH7-A5/GpH7-B3 variant V266_08L/GpL16-k0 (antibody, human IgG1, kappa, one H chain altered; also called He Ab V266_08L) heavy 1: not shown heavy 2: not shown light: DIVMTQSPLSLPVTPGEPASISCQASESLVHSNRNTYLHWYLQKPGQSPQLLIYKVSNRFSGVPDRFSGSGSGTDFTLKISRVEAEDVGVYYCSQNTHVPPTFGQGTKVEIERTVAAPSVFIFPPSDEQLKSGTASVVCLLNNFYPREAKVQWKVDNALQSGNSQESVTEQDSKDSTYSLSSTLTLSKADYEKHKVYACEVTHQGLSSPVTKSFNRGEC

The remaining lines, values behind:

Row | Binder | He/Con_3a [%]
14 | GpH7-A5/GpH7-B3 variant G236_15Y/GpL16-k0 (antibody, human IgG1, kappa, one H chain altered; also called He Ab G236_15Y) heavy 1: not shown heavy 2: not shown light: DIVMTQSPLSLPVTPGEPASISCQASESLVHSNRNTYLHWYLQKPGQSPQLLIYKVSNRFSGVPDRFSGSGSGTDFTLKISRVEAEDVGVYYCSQNTHVPPTFGQGTKVEIERTVAAPSVFIFPPSDEQLKSGTASVVCLLNNFYPREAKVQWKVDNALQSGNSQESVTEQDSKDSTYSLSSTLTLSKADYEKHKVYACEVTHQGLSSPVTKSFNRGEC | 121
15 | GpH7-A5/GpH7-B3 variant H268_18N/GpL16-k0 (antibody, human IgG1, kappa, one H chain altered; also called He Ab H268_18N) heavy 1: not shown heavy 2: not shown light: DIVMTQSPLSLPVTPGEPASISCQASESLVHSNRNTYLHWYLQKPGQSPQLLIYKVSNRFSGVPDRFSGSGSGTDFTLKISRVEAEDVGVYYCSQNTHVPPTFGQGTKVEIERTVAAPSVFIFPPSDEQLKSGTASVVCLLNNFYPREAKVQWKVDNALQSGNSQESVTEQDSKDSTYSLSSTLTLSKADYEKHKVYACEVTHQGLSSPVTKSFNRGEC | 104
16 | GpH7-A5/GpH7-B3 variant I332_06M/GpL16-k0 (antibody, human IgG1, kappa, one H chain altered; also called He Ab I332_06M) heavy 1: not shown heavy 2: not shown light: DIVMTQSPLSLPVTPGEPASISCQASESLVHSNRNTYLHWYLQKPGQSPQLLIYKVSNRFSGVPDRFSGSGSGTDFTLKISRVEAEDVGVYYCSQNTHVPPTFGQGTKVEIERTVAAPSVFIFPPSDEQLKSGTASVVCLLNNFYPREAKVQWKVDNALQSGNSQESVTEQDSKDSTYSLSSTLTLSKADYEKHKVYACEVTHQGLSSPVTKSFNRGEC | 101
17 | GpH7-A5/GpH7-B3 variant I336_08L/GpL16-k0 (antibody, human IgG1, kappa, one H chain altered; also called He Ab I336_08L) heavy 1: not shown heavy 2: not shown light: DIVMTQSPLSLPVTPGEPASISCQASESLVHSNRNTYLHWYLQKPGQSPQLLIYKVSNRFSGVPDRFSGSGSGTDFTLKISRVEAEDVGVYYCSQNTHVPPTFGQGTKVEIERTVAAPSVFIFPPSDEQLKSGTASVVCLLNNFYPREAKVQWKVDNALQSGNSQESVTEQDSKDSTYSLSSTLTLSKADYEKHKVYACEVTHQGLSSPVTKSFNRGEC | 106
18 | GpH7-A5/GpH7-B3 variant L234_04F/GpL16-k0 (antibody, human IgG1, kappa, one H chain altered; also called He Ab L234_04F) heavy 1: not shown heavy 2: not shown light: DIVMTQSPLSLPVTPGEPASISCQASESLVHSNRNTYLHWYLQKPGQSPQLLIYKVSNRFSGVPDRFSGSGSGTDFTLKISRVEAEDVGVYYCSQNTHVPPTFGQGTKVEIERTVAAPSVFIFPPSDEQLKSGTASVVCLLNNFYPREAKVQWKVDNALQSGNSQESVTEQDSKDSTYSLSSTLTLSKADYEKHKVYACEVTHQGLSSPVTKSFNRGEC | 118
19 | GpH7-A5/GpH7-B3 variant L234_07I/GpL16-k0 (antibody, human IgG1, kappa, one H chain altered; also called He Ab L234_07I) heavy 1: not shown heavy 2: not shown light: DIVMTQSPLSLPVTPGEPASISCQASESLVHSNRNTYLHWYLQKPGQSPQLLIYKVSNRFSGVPDRFSGSGSGTDFTLKISRVEAEDVGVYYCSQNTHVPPTFGQGTKVEIERTVAAPSVFIFPPSDEQLKSGTASVVCLLNNFYPREAKVQWKVDNALQSGNSQESVTEQDSKDSTYSLSSTLTLSKADYEKHKVYACEVTHQGLSSPVTKSFNRGEC | 103
20 | GpH7-A5/GpH7-B3 variant L234_09D/GpL16-k0 (antibody, human IgG1, kappa, one H chain altered; also called He Ab L234_09D) heavy 1: not shown heavy 2: not shown light: DIVMTQSPLSLPVTPGEPASISCQASESLVHSNRNTYLHWYLQKPGQSPQLLIYKVSNRFSGVPDRFSGSGSGTDFTLKISRVEAEDVGVYYCSQNTHVPPTFGQGTKVEIERTVAAPSVFIFPPSDEQLKSGTASVVCLLNNFYPREAKVQWKVDNALQSGNSQESVTEQDSKDSTYSLSSTLTLSKADYEKHKVYACEVTHQGLSSPVTKSFNRGEC | 117
21 | GpH7-A5/GpH7-B3 variant L234_20W/GpL16-k0 (antibody, human IgG1, kappa, one H chain altered; also called He Ab L234_20W) heavy 1: not shown heavy 2: not shown light: DIVMTQSPLSLPVTPGEPASISCQASESLVHSNRNTYLHWYLQKPGQSPQLLIYKVSNRFSGVPDRFSGSGSGTDFTLKISRVEAEDVGVYYCSQNTHVPPTFGQGTKVEIERTVAAPSVFIFPPSDEQLKSGTASVVCLLNNFYPREAKVQWKVDNALQSGNSQESVTEQDSKDSTYSLSSTLTLSKADYEKHKVYACEVTHQGLSSPVTKSFNRGEC | 107
22 | GpH7-A5/GpH7-B3 variant P238_09D/GpL16-k0 (antibody, human IgG1, kappa, one H chain altered; also called He Ab P238_09D) heavy 1: not shown heavy 2: not shown light: DIVMTQSPLSLPVTPGEPASISCQASESLVHSNRNTYLHWYLQKPGQSPQLLIYKVSNRFSGVPDRFSGSGSGTDFTLKISRVEAEDVGVYYCSQNTHVPPTFGQGTKVEIERTVAAPSVFIFPPSDEQLKSGTASVVCLLNNFYPREAKVQWKVDNALQSGNSQESVTEQDSKDSTYSLSSTLTLSKADYEKHKVYACEVTHQGLSSPVTKSFNRGEC | 106
